The RNAGym collection of RNA variant scans (doi:10.7554/elife.90254)

B1: LINE1-full (parent)
chain: UACGUAGGUGGUUUUCCCCUGAUAGUGCUAAGGGGGCCUGGAAGUUUGGACUGGGCAGAGCUCAACACAGCGUGGCAAAGUGGCUGUGGCUAGACUGCCUCUCUGGAUUCCUCGUCACUCAGCAGGGCAUCUCUGAGAGAAAUGCC

Variants of: B1
Assay: self-cleavage, relative activity (ratio to wild type); higher = more cleavage; in vitro, sequencing; the parent is a self-cleaving ribozyme

Variant | self-cleavage
A65G U104C | 0.01
A65G C95U | 0.05
A69G C113A | 0.48
A69G C113U | 0.41
A65C U81A | 0.02
A67C A94G | 0
A67C A77G | 0.22
C66U U73A | 0.03
A69G C84G | 0.06
A64G U134A | 0.24
A65U U143C | 0.24
A65U U143A | 0.06
A67U U134C | 0.16
A67U A129G | 0.08
C66U A92G | 0.02
A65C A136G | 0
A65C G74U | 0.03
A64G U85A | 0.07
A64G U85C | 0.1
A67U C99A | 0
A69G A107U | 0
A64U U115C | 0.63
A64U A77U | 0.48
A64U A77G | 0.75

Variant | self-cleavage
A67C A117G | 0
A65G A129U | 0.02
A65G A129G | 0.03
A67G C76U | 0.62
A65U U87C | 0.04
A65U U87A | 0.25
A67U U132C | 0.16
A67U U132A | 0.11
A65G G86A | 0.02
A65U U96A | 0
A67U C110U | 0.14
A65G A136G | 0.07
A64U A136G | 0.71
A64U A136U | 0.45
A65G A67C | 0.14
A65G A67U | 0.03
A65G A67G | 0.09
A64U A121G | 0.49
A64U A121U | 0.53
A64U U109A | 0.49
A67G A140G | 0.42
A65G | 0.06
A65C | 0.04
A65U | 0.17

Variant | self-cleavage
A65G U100G | 0
A67U G72A | 0.13
C66U A129G | 0.01
A67G U143C | 0.57
A67G U143A | 0.42
A67C A129G | 0
C68U A138G | 0.17
A69G A78G | 0.25
A64G U108C | 0.31
A67G C99A | 0.17
A65U U132C | 0.2
A65G A79U | 0.04
A67C A92G | 0.05
A67U A138U | 0.15
A67U A138G | 0.13
A65U A78U | 0.2
A65U A78G | 0.16
A64U A79G | 0.4
A69C U134C | 0.03
A65U A94G | 0.1
A65G C101U | 0.04
A64G U87C | 0.06
A67C U109C | 0.06
A64U U85C | 0.08

Variant | self-cleavage
A65G U96A | 0.07
C66U A78G | 0.04
A67U A117G | 0.19
A67U U73A | 0.05
A67U A92G | 0.04
A67U A92U | 0.05
A67G C103U | 0.25
A67C U134A | 0.02
A67C U134C | 0.09
C66A A124U | 0.04
A65G A121G | 0.08
A67G U108A | 0.5
A67G U108C | 0.6
A64U U130C | 0.55
A64U U130G | 0.43
C68U U85A | 0.03
C68U U85C | 0.03
A67G C98U | 0.06
A69G C120U | 0.44
A69C U85C | 0.03
A65G A142G | 0.06
A65C A129G | 0.09
A67G U81A | 0.63
C68U A69G | 0.11

Variant | self-cleavage
A67G C68U | 0.04
A67G G86A | 0.05
A65U A77G | 0.3
A67G C118A | 0.58
A65U U104A | 0.14
C66A U115C | 0.05
A64U A78G | 0.27
A67G U100A | 0.06
A65G U73A | 0.04
A65G U73C | 0.06
A64G U112A | 0.16
A69C C76U | 0.08
A65U C99U | 0.1
C68U U104A | 0.03
C68U U132C | 0.25
A65G C90A | 0.01
A65G C90G | 0.09
C68U A136G | 0.36
A65G G88A | 0.02
C68U A107G | 0.12
C68U A107U | 0.19
A67U U112C | 0.09
A64U A65G | 0.07
A65G C145G | 0.02

Variant | self-cleavage
A67U C90G | 0.04
A65G A138U | 0.08
C68A G88A | 0.01
A65U U109C | 0.18
A69C U81C | 0
A65G A78G | 0.04
A65U C71U | 0.05
A65G G105A | 0.01
C68U G135A | 0.22
A65G G93A | 0.02
A69C A121G | 0.11
A69C A121U | 0.04
A65G U132A | 0.04
A64U A69G | 0.17
A64U A69U | 0.07
A64G U109A | 0.14
A64G U109C | 0.2
A64G U104C | 0.59
A65U U85G | 0.1
A65U U85C | 0.06
A65U C111U | 0.24
A65G C123G | 0.03
A65G C123U | 0.04
A67U U100C | 0.27

Variant | self-cleavage
A69G A77G | 0.6
A69G A77C | 0.61
A69G A77U | 0.58
C66U U91A | 0.05
A67U A107U | 0.04
A65U A69U | 0.03
A69G C71U | 0.1
A67U U108C | 0.29
A67G A138G | 0.67
A67G A138U | 0.56
C66U A107G | 0.03
A67U G88A | 0.03
A64U U96C | 0.04
C66G | 0.04
C66A | 0.05
C66U | 0.05
A67U C131U | 0.08
A64U G93U | 0.05
A64U A94G | 0.09
A64U A94C | 0.05
A67G A124G | 0.26
A69G A124U | 0
A67C A124G | 0.06
A64U A67G | 0.15

Variant | self-cleavage
C66U A77G | 0.07
A65C G80A | 0.02
A67G U73C | 0.66
A67G U73A | 0.24
A65G C113U | 0.04
A67G U132A | 0.64
A67U G83A | 0.03
A67G G106U | 0.33
A69G A92G | 0.23
A69G A92U | 0.13
A67U U85A | 0.05
A69C G83A | 0.02
A65C A140G | 0.05
A67G A77G | 0.91
A65G C103U | 0.06
A65G G144A | 0.1
A65G U81C | 0.09
A64G U119A | 0.32
A69C C131A | 0.09
A67G U134A | 0.39
A64U U143C | 0.42
A69C A142C | 0.13
A64U G114A | 0.41
A65G A141G | 0.07

Variant | self-cleavage
A67G U109A | 0.43
A65G U143A | 0.06
A65G U143C | 0.08
A64U U132C | 0.49
A64U U132G | 0.61
A65G U130C | 0.1
A65U U73C | 0.16
C66U U100A | 0.02
A67G G72A | 0.21
A64U C113U | 0.28
A64U C113A | 0.17
A64G U100A | 0.23
A64G U100C | 0.29
A67G A78U | 0.65
A64U A117U | 0.49
A67G A69C | 0.37
A67G A69U | 0.06
A69G C111U | 0.47
C68U U134A | 0.18
A69G A79G | 0.31
A64U A141G | 0.32
C68U A78U | 0.37
A64G U143C | 0.26
A64U G137A | 0.24

Variant | self-cleavage
A67C U130C | 0.04
A69G C90A | 0
A69G C90U | 0.07
A65G G75A | 0.03
A67G G83C | 0.13
C68U A92G | 0.05
A65U C133U | 0.16
C66G U81A | 0.02
C68U U96C | 0.04
A65C A141G | 0.02
A65G U112A | 0.04
C66U U104C | 0.05
A69C A141G | 0.07
C66U A142C | 0.04
A67G A121C | 0.62
A64U U81A | 0.85
C66U A117G | 0.05
A67G U104A | 0.36
C68U U130C | 0.19
A65G A107U | 0
A65G G139A | 0.06
A69G A129G | 0.58
A69G C99G | 0
A67U U87A | 0.57

Variant | self-cleavage
A65U U134A | 0.13
A67U A69G | 0.03
A67C U104G | 0.14
A67U A94G | 0.02
A64U U104A | 0.29
A65G U119A | 0.05
C66U U115C | 0.01
A67U G106A | 0.15
A65G G135U | 0.14
A65G C128U | 0.05
A64U G70A | 0.07
A67C C118G | 0.05
A67U U130C | 0.15
C68U | 0.13
C68G | 0.05
C68A | 0.04
A67U C101A | 0.09
A65G A117U | 0.04
A69C U132C | 0
A69C U132A | 0.2
A69G A136C | 0.49
A67U A121U | 0.12
A65G G122U | 0.07
A65G U85G | 0.07

Variant | self-cleavage
A69G C123U | 0.45
C68U A129C | 0.22
A65C A69U | 0.36
A65G U109G | 0.23
A65G U109C | 0.06
A67U G89A | 0.03
C66U U119C | 0.04
A65G A94U | 0.05
A67U A136C | 0.03
A65U U119C | 0.19
A65U U119G | 0.45
A67G C131A | 0.72
A67G C131G | 0
A64U U112C | 0.44
A67U U81C | 0.13
A64U U119C | 0.61
A67C A69G | 0
A67U U96C | 0.07
A67G G144A | 0.69
A64U A142G | 0.47
A64U A142U | 0.46
A67G C110U | 0.46
A64U U87C | 0.12
C66A A107U | 0.05

Variant | self-cleavage
C66A A107G | 0.03
A65U A136G | 0.2
A65G U91A | 0.02
A65U U112C | 0.26
C68U U143C | 0.22
A64G U102A | 0.15
A69C G88A | 0.01
A65U A138U | 0.16
C68A C133A | 0.02
A64U U100A | 0.23
A64U U100C | 0.77
C68G U134G | 0.04
A65U G127U | 0.28
A69C A78G | 0.1
A67G G135A | 0.68
A67G G74U | 0.54
A65G G127A | 0.05
A65U A121G | 0.21
A67G C95A | 0.07
A65G U134C | 0.06
A65G U134G | 0.03
A64U C110A | 0.44
C66U U85G | 0.03
A67G C101U | 0.75

Variant | self-cleavage
A67C A140G | 0.06
A69G A94U | 0.13
A69G A94G | 0.14
A64G U96C | 0.15
A69G C76U | 0.69
A65G C71G | 0.05
A64U G144A | 0.42
A67G A79G | 0.5
A65G U102C | 0.08
A65G U102A | 0.01
A65G U102G | 0
A67U A78G | 0.08
A65U U102A | 0.17
A65U U102C | 0.3
A67U U91A | 0.08
A67U U91C | 0.05
A67G U85A | 0.08
A67G U85G | 0.12
A67G U85C | 0.1
A64G U115A | 0.08
A64G U115G | 0.35
A67G G82A | 0.23
